B1: 鼠单抗mF3-9 (antibody, V domains shown)
VH: QVQLQQSGAELVRPGSSVKISCKASGYSFSSYWMNWVKQRPGQGLEWIGQIYPGDGDTNFNGKFKGKATLTADKSSSTAYMQLSSLTSEDSAVYFCGNYDYDGEIPYWGQGTTLTVSS
VL: DIFLTQSPAILSVSPGERVNFSCRASQTIGTSLHWYQQRTNGSPRLLIKYASESISGIPSRFSGSGSGTEFTLRINSVESEDIADYYCQQSSKWPLTFGQGTKVEIK
notes: Mouse hybridoma monoclonal antibody; also called 鼠单抗F3-9; 抗体F3-9
B2: 人-鼠嵌合型F3-9抗体(chF3-9) (antibody, IgG2, V domains shown)
VH: QVQLQQSGAELVRPGSSVKISCKASGYSFSSYWMNWVKQRPGQGLEWIGQIYPGDGDTNFNGKFKGKATLTADKSSSTAYMQLSSLTSEDSAVYFCGNYDYDGEIPYWGQGTTLTVSS
VL: DIFLTQSPAILSVSPGERVNFSCRASQTIGTSLHWYQQRTNGSPRLLIKYASESISGIPSRFSGSGSGTEFTLRINSVESEDIADYYCQQSSKWPLTFGQGTKVEIK
notes: also called F3-9嵌合抗体; 嵌合PCSK9抗体F3-9

Key:
[1] = target: T1, huPCSK9-His，重组人PCSK9胞外区His融合蛋白 (human, UniProt Q8NBP7 31-692, biotin-labelled in the ELISA and in the LDL-R blocking assay (sites not given)); experiment: cell-based or functional assay
T1 sequence (Q8NBP7 other isoform, or with tags, fused parts or gaps limits assumed): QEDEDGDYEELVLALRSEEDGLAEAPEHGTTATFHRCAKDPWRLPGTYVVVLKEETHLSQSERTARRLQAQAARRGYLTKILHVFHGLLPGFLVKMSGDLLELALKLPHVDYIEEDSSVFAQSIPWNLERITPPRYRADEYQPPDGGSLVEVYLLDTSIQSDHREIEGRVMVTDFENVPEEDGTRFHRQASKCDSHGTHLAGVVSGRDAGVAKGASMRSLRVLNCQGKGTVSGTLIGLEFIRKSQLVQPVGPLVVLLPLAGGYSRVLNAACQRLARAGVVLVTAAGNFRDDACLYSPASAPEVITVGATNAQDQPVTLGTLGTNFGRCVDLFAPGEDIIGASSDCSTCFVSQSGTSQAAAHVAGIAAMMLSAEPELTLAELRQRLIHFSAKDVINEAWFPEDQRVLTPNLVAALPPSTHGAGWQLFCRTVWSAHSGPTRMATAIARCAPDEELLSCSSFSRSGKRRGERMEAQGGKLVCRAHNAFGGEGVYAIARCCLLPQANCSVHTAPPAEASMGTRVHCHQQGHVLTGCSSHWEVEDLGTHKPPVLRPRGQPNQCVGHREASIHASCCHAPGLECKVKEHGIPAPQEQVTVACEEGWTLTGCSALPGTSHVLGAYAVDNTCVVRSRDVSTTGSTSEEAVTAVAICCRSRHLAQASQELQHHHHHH

[2] = target: T1, huPCSK9-His，重组人PCSK9胞外区His融合蛋白; experiment: ELISA, biotin-labelled PCSK9-His captured on neutravidin-coated plate
[3] = target: T2, cyPCSK9，猕猴PCSK9胞外区His融合蛋白 (猕猴 (macaque), UniProt A8T662 31-692, biotin-labelled in the ELISA (sites not given)); experiment: as above
T2 construct: Bought (Novoprotein CA87); The printed entry includes the His tag
T2 sequence (A8T662 other isoform, or with tags, fused parts or gaps limits assumed, form in doubt): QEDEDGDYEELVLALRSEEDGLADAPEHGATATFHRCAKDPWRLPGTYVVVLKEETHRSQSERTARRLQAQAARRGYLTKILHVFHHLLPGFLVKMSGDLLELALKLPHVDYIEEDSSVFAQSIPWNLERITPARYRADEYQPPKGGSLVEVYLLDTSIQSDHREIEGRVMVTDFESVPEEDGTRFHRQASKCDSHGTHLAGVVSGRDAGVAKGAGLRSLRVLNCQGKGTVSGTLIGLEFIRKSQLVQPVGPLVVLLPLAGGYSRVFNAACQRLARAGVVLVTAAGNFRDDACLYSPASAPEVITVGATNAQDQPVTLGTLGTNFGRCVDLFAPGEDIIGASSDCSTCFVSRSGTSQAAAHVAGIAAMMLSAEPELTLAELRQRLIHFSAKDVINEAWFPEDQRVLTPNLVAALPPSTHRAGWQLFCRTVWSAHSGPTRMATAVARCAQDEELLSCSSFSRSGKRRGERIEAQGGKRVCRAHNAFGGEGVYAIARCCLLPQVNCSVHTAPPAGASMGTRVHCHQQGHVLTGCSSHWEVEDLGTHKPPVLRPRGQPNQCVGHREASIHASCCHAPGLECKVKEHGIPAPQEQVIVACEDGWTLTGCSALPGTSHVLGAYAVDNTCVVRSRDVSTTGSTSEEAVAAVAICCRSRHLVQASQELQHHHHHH

[4] = target: T1, huPCSK9-His，重组人PCSK9胞外区His融合蛋白; experiment: BLI (ForteBio), chF3-9 captured on anti-human Fc (AHC) sensor, PCSK9 in solution, 1:1 global fit
[5] = target: T2, cyPCSK9，猕猴PCSK9胞外区His融合蛋白; experiment: as above

Binder | 有效活性浓度(EC50), antagonism of PCSK9 inhibition of LDL uptake by HepG2 cells [1] | EC50 [2] | EC50 [3] | Kd [4] | Kd [5]
B1 | 10 nM | 0.68 nM | 0.62 nM | – | –
B2 | – | – | – | 0.42 nM | 1.27 nM

Reference: CN106554420A (SHANGHAI UNION BIOPHARM CO LTD; LI JUN, dated 2017)
